According to PMC3025356, “Mechanism of the Ca^2+-Dependent Interaction between S100A4 and Tail Fragments of Nonmuscle Myosin Heavy Chain IIA” (Journal of Molecular Biology, 2011):
Entries after “also recorded” stand apart in the source; their conditions may differ.

Key:
[1] = CD / helical stability of M111; type: physicochemical; conditions: 0.05 mM protein
Protocol: CD spectra were measured on a JASCO J-715 spectropolarimeter equipped with a JASCO PTC-348WI temperature-controlled unit at 0.05 mM protein solutions using a 1-mm pathlength microcuvette.

[2] = target: T1, S100A4 (Homo sapiens, UniProt P26447); experiment: Quin-2 fluorescence, Ca^2+ dissociation from S100A4 in the presence of target peptides; type: binding
T1 construct: We used full-length S100A4 for this analysis; made in house; host or cells: Escherichia coli BL21(DE3)
Protocol: Ca^2+ dissociation measurements for wild-type S100A4, using Quin-2 as described above, were repeated as a control for the effect of target peptides on this process. On mixing 10 μM S100A4 in the presence of Ca^2+ with 100 μM Quin-2, the observed profile was fitted to a single exponential with kobs = 17 s^− 1 (Fig. 5a; cf. k− 1 in Scheme 1).
Fig. 5 Dissociation of Ca^2+ from S100A4 in the absence and in the presence of target peptides monitored using Quin-2 fluorescence. (a) Mixed with 100 μM Quin-2 was 10 μM S100A4 + 50 μM Ca^2+ (stopped-flow reaction chamber concentrations). A superposed fit to a single exponential yields kobs = 17 s^− 1. […] (d) As in (a), but with 2.5 μM M200 premixed with 5 μM S100A4. A biphasic exponential fit yielded rate constants of 13 s^− 1 (A = 26%) and 0.30 s^− 1 (A = 74%). […] Experiments were carried out in either 20 mM NaCl, 20 mM Tris, 1 mM DTT, and 100 μM Ca^2+ at pH 7.5 and 20 °C (a and b; cf. Malashkevich et al.[17]), or 100 mM NaCl, 10 mM Hepes, and 100 μM Ca^2+ at pH 7.5 and 20 °C (c and d). […] Rate constants were unaffected by the inclusion of 1 mM Mg^2+.
Stopped-flow measurements were carried out using an SX18-MV apparatus (Applied Photophysics Ltd., Leatherhead, UK) with a dead time of 1.5 ms.[40] Records were generally captured on a logarithmic time base. Absorption (turbidity) measurements were usually recorded using a 10-mm pathlength, while fluorescence was recorded with a 2-mm pathlength for excitation and emission. The stated concentrations of components refer to the reaction chamber after mixing, unless otherwise indicated. Tyrosine fluorescence was excited at 280 nm, and the emission was collected through a UG11 bandpass filter plus a 305-nm longpass filter.[18] Fluorescein fluorescence was excited at 480 nm, and the emission was detected through a 515-nm longpass filter. Quin-2 fluorescence was measured by excitation at 336 nm, and emission was collected with a 455-nm longpass filter. For simultaneous recording of light scatter, a second channel was monitored through a UG11 filter. Rate constants were obtained by fitting to single-exponential or double-exponential functions using Kaleidagraph (Synergy Software) or Applied Photophysics Pro-Data software. Modeling of kinetic schemes was performed using Berkeley Madonna software.

[3] = increasing concentrations of M111

T1 sequence (P26447 whole entry): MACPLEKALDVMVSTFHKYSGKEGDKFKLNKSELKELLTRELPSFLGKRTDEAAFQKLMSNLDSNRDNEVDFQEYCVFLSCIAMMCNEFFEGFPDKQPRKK

- fast-phase amplitude ([2]; 5 μM M111, 10 μM S100A4): 6%
- slow-phase amplitude ([2]; 5 μM M111, 10 μM S100A4): 94%
- slow-phase rate constant ([2]; 5 μM M111, 10 μM S100A4, 50 μM Ca^2+, 100 μM Quin-2): 0.36 s⁻¹
- fast-phase rate constant ([2]; 5 μM M111, 10 μM S100A4, 50 μM Ca^2+, 100 μM Quin-2, residual unbound S100A4): 21 s⁻¹
- slower release of Ca^2+ ([2]; in presence of coiled-coil fragments): 0.3–0.5 s^− 1
- fast-phase rate constant [2, 3]: 20 s^− 1
- slow-phase rate constant [2, 3]: 0.4 s^− 1
- Ca^2+ dissociation rate constant from complex (k− 3), comparison ([2]; peptide–S100A4–Ca^2+ complex): 0.3 s^− 1
B1: M111: His-tagged human NM-MHC IIA residues 1850-1960, V1913I substitution (protein, UniProt P35579 1850-1960, looked up, variant V1913I)
chain: QVDDERRNAEQYKDQADKASTRLKQLKRQLEEAEEEAQRANASRRKLQRELEDATETADAMNREISSLKNKLRRGDLPFVVPRRMARKGAGDGSDEEVDGKADGAEAKPAE
modifications: His tag
notes: His-tagged human NM-MHC IIA residues 1850-1960, V1913I substitution
- helical structure stability [1]: high helical content detected for the fragment by CD below 20 °C; also recorded: only marginally stable at 20 °C
